Molecular target: T1, CL-K1 (Homo sapiens, UniProt Q9BWP8)
T1 construct: For full-length protein, the cDNA was cloned into the polylinker region of expression vector pED; made in house; host or cells: Chinese hamster ovary cells
Assay: Surface plasmon resonance of CL-K1 binding to glycoproteins
Settings: glycoprotein starting concentration 200 nM
Experimental: Figure 1 Glycoprotein binding and complement activation by CL-K1. A) Immunoblot of CL-K1 binding to immobilised mammalian and yeast glycoproteins. B) Surface plasmon resonance of CL-K1 binding to glycoproteins. […] C3b and its breakdown products were detected by absorbance using an anti-human C3c antibody with alkaline phosphatase-conjugated goat anti-rabbit secondary antibody and p-nitrophenyl phosphate as the substrate. Protein concentrations were calculated based on the molecular masses of CL-K1 and MBL trimers (78 kDa in each case). CL-K1, collectin-K1; MBL, mannan-binding lectin.
CL-K1 was immobilised on the surface of a GLM sensor chip (Bio-Rad Laboratories Ltd (Hemel Hempstead, UK)) by amine coupling. Binding was measured in 10 mM Tris–HCl, pH 7.4 containing 140 mM NaCl, 2 mM CaCl2 and 0.005% Tween 20 at a flow rate of 25 μl/minute and at 25°C. The protein surface was regenerated in buffer containing 1 M NaCl and 5 mM EDTA.

T1 sequence (Q9BWP8 26-271): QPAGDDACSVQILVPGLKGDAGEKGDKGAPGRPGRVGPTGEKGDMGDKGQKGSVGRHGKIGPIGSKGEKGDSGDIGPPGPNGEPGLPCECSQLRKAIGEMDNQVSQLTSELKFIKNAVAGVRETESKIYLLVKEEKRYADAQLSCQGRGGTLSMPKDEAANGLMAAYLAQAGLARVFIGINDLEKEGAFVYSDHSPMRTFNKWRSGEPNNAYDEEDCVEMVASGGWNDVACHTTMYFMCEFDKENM

binding to CL-K1 by surface plasmon resonance: not
B1: milk lactoferrin: human milk lactoferrin, contains complex sugars (protein, UniProt P02788 20-710, looked up)
Lactotransferrin: GRRRSVQWCAVSQPEATKCFQWQRNMRKVRGPPVSCIKRDSPIQCIQAIAENRADAVTLDGGFIYEAGLAPYKLRPVAAEVYGTERQPRTHYYAVAVVKKGGSFQLNELQGLKSCHTGLRRTAGWNVPIGTLRPFLNWTGPPEPIEAAVARFFSASCVPGADKGQFPNLCRLCAGTGENKCAFSSQEPYFSYSGAFKCLRDGAGDVAFIRESTVFEDLSDEAERDEYELLCPDNTRKPVDKFKDCHLARVPSHAVVARSVNGKEDAIWNLLRQAQEKFGKDKSPKFQLFGSPSGQKDLLFKDSAIGFSRVPPRIDSGLYLGSGYFTAIQNLRKSEEEVAARRARVVWCAVGEQELRKCNQWSGLSEGSVTCSSASTTEDCIALVLKGEADAMSLDGGYVYTAGKCGLVPVLAENYKSQQSSDPDPNCVDRPVEGYLAVAVVRRSDTSLTWNSVKGKKSCHTAVDRTAGWNIPMGLLFNQTGSCKFDEYFSQSCAPGSDPRSNLCALCIGDEQGENKCVPNSNERYYGYTGAFRCLAENAGDVAFVKDVTVLQNTDGNNNEAWAKDLKLADFALLCLDGKRKPVTEARSCHLAMAPNHAVVSRMDKVERLKQVLLHQQAKFGRNGSDCPDKFCLFQSETKNLLFNDNTECLARLHGKTTYEKYLGPQYVAGITNLKKCSTSPLLEACEFLRK

From PMC4431178, “Molecular basis of sugar recognition by collectin-K1 and the effects of mutations associated with 3MC syndrome” (BMC Biology, 2015)
